B1: N-acetyllactosaminide beta-1,3-N-acetylglucosaminyltransferase 2 (Homo sapiens), Q9NY97 (parent)
chain: MSVGRRRIKLLGILMMANVFIYFIMEVSKSSSQEKNGKGEVIIPKEKFWKISTPPEAYWNREQEKLNRQYNPILSMLTNQTGEAGRLSNISHLNYCEPDLRVTSVVTGFNNLPDRFKDFLLYLRCRNYSLLIDQPDKCAKKPFLLLAIKSLTPHFARRQAIRESWGQESNAGNQTVVRVFLLGQTPPEDNHPDLSDMLKFESEKHQDILMWNYRDTFFNLSLKEVLFLRWVSTSCPDTEFVFKGDDDVFVNTHHILNYLNSLSKTKAKDLFIGDVIHNAGPHRDKKLKYYIPEVVYSGLYPPYAGGGGFLYSGHLALRLYHITDQVHLYPIDDVYTGMCLQKLGLVPEKHKGFRTFDIEEKNKNNICSYVDLMLVHSRKPQEMIDIWSQLQSAHLKC
partner: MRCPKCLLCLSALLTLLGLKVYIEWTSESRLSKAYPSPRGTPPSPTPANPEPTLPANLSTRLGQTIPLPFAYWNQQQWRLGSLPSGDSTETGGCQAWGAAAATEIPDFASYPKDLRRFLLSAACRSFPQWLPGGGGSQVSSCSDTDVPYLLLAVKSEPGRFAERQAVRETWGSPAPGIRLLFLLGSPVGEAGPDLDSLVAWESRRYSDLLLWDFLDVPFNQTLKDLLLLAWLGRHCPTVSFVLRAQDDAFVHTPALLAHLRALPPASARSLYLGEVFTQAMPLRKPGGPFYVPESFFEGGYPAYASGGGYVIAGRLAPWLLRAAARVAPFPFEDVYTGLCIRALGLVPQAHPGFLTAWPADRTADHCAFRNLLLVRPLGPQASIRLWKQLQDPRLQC
B2: "UDP-GlcNAc:betaGal beta-1,3-N-acetylglucosaminyltransferase 8" (Homo sapiens), Q7Z7M8 (parent)
chain: B1 partner
partner: B1 chain

Variants of: B1
Conditions: with B3GNT8, Q7Z7M8

| effect of a mutation on the interaction | Variant |
| --- | --- |
| with no effect | MSVGRRRIKLLGILMMANVFIYFIMEVSKSSSQEKNGKGEVIIPKEKFWKISTPPEAYWNREQEKLNRQYNPILSMLTNQTGEAGRLSNISHLNYCEPDLRVTSVVTGFNNLPDRFKDFLLYLRCRNYSLLIDQPDKCAKKPFLLLAIKSLTPHFARRQAIRESWGQESNAGNQTVVRVFLLGQTPPEDNHPDLSDMLKFESEKHQDILMWNYRDTFFNLSLKEVLFLRWVSTSCPDTEFVFKGADDVFVNTHHILNYLNSLSKTKAKDLFIGDVIHNAGPHRDKKLKYYIPEVVYSGLYPPYAGGGGFLYSGHLALRLYHITDQVHLYPIDDVYTGMCLQKLGLVPEKHKGFRTFDIEEKNKNNICSYVDLMLVHSRKPQEMIDIWSQLQSAHLKC [D245A] |

Variants of: B2
Conditions: with B3GNT2, Q9NY97

| effect of a mutation on the interaction | Variant |
| --- | --- |
| with no effect | MRCPKCLLCLSALLTLLGLKVYIEWTSESRLSKAYPSPRGTPPSPTPANPEPTLPANLSTRLGQTIPLPFAYWNQQQWRLGSLPSGDSTETGGCQAWGAAAATEIPDFASYPKDLRRFLLSAACRSFPQWLPGGGGSQVSSCSDTDVPYLLLAVKSEPGRFAERQAVRETWGSPAPGIRLLFLLGSPVGEAGPDLDSLVAWESRRYSDLLLWDFLDVPFNQTLKDLLLLAWLGRHCPTVSFVLRAADDAFVHTPALLAHLRALPPASARSLYLGEVFTQAMPLRKPGGPFYVPESFFEGGYPAYASGGGYVIAGRLAPWLLRAAARVAPFPFEDVYTGLCIRALGLVPQAHPGFLTAWPADRTADHCAFRNLLLVRPLGPQASIRLWKQLQDPRLQC [Q246A] |
